Experiment [1] deals with T1, B7-H3 (CD276), endogenous on tumor cells (LM7, A549, U373) (UniProt Q5ZPR3).
T1 sequence (looked up): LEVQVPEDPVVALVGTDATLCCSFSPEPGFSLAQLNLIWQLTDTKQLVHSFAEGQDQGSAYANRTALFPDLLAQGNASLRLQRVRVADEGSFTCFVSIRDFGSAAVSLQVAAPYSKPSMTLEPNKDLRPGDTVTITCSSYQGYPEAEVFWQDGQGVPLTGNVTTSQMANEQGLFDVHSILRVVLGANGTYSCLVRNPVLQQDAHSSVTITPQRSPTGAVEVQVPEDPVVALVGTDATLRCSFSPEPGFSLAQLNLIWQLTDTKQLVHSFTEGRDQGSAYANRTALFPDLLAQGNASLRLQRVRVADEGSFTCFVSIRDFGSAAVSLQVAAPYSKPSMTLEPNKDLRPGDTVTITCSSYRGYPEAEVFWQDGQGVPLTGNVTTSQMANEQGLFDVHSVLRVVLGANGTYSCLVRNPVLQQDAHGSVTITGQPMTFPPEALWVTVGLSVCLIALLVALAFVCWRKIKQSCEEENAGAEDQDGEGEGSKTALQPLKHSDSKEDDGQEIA
Briefly: cell-based or functional assay.

Experiment [2] concerns the target T1, B7-H3 (CD276), endogenous on tumor cells (LM7, A549, U373). In words: cell-based or functional assay. The source holds these as a separate data set.

Where two headings read alike, the source gives them in different places.

Consider “CD8α/CD28 B7-H3-CAR (second generation B7-H3-CAR with MGA271-derived scFv, CD8α hinge/transmembrane domain, CD28 costimulatory domain and CD3ζ), expressed on human T cells”, for which, in experiment [1], the cytolysis of LM7 tumor cells, impedance assay (xCelligence), 1st stimulation came out at 100% and the cytolysis of LM7 tumor cells, impedance assay (xCelligence), 1st stimulation, 0.5:1 T-cell to tumor cell ratio turned out to be 100%.

“CD8α/CD28.4-1BB third generation (3G) B7-H3-CAR (4-1BB signaling domain inserted into the CD8α/CD28-CAR), expressed on human T cells” gave a cytolysis of LM7 tumor cells, impedance assay (xCelligence), 1st stimulation in experiment [1] of 100%. Regarding “CD8α/4-1BB B7-H3-CAR (second generation B7-H3-CAR with MGA271-derived scFv, CD8α hinge/transmembrane domain, 4-1BB costimulatory domain and CD3ζ), expressed on human T cells”, the cytolysis of LM7 tumor cells, impedance assay (xCelligence), 1st stimulation, 0.5:1 T-cell to tumor cell ratio in experiment [1] stood at 100%.

B1: CD28/CD28 B7-H3-CAR (second generation B7-H3-CAR with MGA271-derived scFv, CD28 hinge/transmembrane domain, CD28 costimulatory domain and CD3ζ), expressed on … (protein)
chain: EVQLVESGGGLVQPGGSLRLSCAASGFTFSSFGMHWVRQAPGKGLEWVAYISSDSSAIYYADTVKGRFTISRDNAKNSLYLQMNSLRDEDTAVYYCGRGRENIYYGSRLDYWGQGTTVTVSSGGGGSGGGGSGGGGSDIQLTQSPSFLSASVGDRVTITCKASQNVDTNVAWYQQKPGKAPKALIYSASYRYSGVPSRFSGSGSGTDFTLTISSLQPEDFATYYCQQYNNYPFTFGQGTKLEIKIEVMYPPPYLDNEKSNGTIIHVKGKHLCPSPLFPGPSKPFWVLVVVGGVLACYSLLVTVAFIIFWVRSKRSRLLHSDYMNMTPRRPGPTRKHYQPYAPPRDFAAYRSRVKFSRSADAPAYQQGQNQLYNELNLGRREEYDVLDKRRGRDPEMGGKPRRKNPQEGLYNELQKDKMAEAYSEIGMKGERRRGKGHDGLYQGLSTATKDTYDALHMQALPPR
In the case of B1, the cytolysis of LM7 tumor cells, impedance assay (xCelligence), 1st stimulation, 0.5:1 T-cell to tumor cell ratio in experiment [2] amounted to 100%.

B2: CD28/4-1BB B7-H3-CAR (second generation B7-H3-CAR with MGA271-derived scFv, CD28 hinge/transmembrane domain, 4-1BB costimulatory domain and CD3ζ), expressed on … (protein)
chain: EVQLVESGGGLVQPGGSLRLSCAASGFTFSSFGMHWVRQAPGKGLEWVAYISSDSSAIYYADTVKGRFTISRDNAKNSLYLQMNSLRDEDTAVYYCGRGRENIYYGSRLDYWGQGTTVTVSSGGGGSGGGGSGGGGSDIQLTQSPSFLSASVGDRVTITCKASQNVDTNVAWYQQKPGKAPKALIYSASYRYSGVPSRFSGSGSGTDFTLTISSLQPEDFATYYCQQYNNYPFTFGQGTKLEIKIEVMYPPPYLDNEKSNGTIIHVKGKHLCPSPLFPGPSKPFWVLVVVGGVLACYSLLVTVAFIIFWVKRGRKKLLYIFKQPFMRPVQTTQEEDGCSCRFPEEEEGGCELRVKFSRSADAPAYQQGQNQLYNELNLGRREEYDVLDKRRGRDPEMGGKPRRKNPQEGLYNELQKDKMAEAYSEIGMKGERRRGKGHDGLYQGLSTATKDTYDALHMQALPPR
On to B2, for which the cytolysis of LM7 tumor cells, impedance assay (xCelligence), 1st stimulation, 0.5:1 T-cell to tumor cell ratio in experiment [2] worked out at 100%.

The values are drawn from patent US20230174653A1.
